Assay results taken from publication PMC8596125, “Self‐Stabilized Supramolecular Assemblies Constructed from PEGylated Dendritic Peptide Conjugate for Augmenting Tumor Retention and Therapy” (Advanced Science, 2021).

Key:
[1] = tested on: mouse red blood cells (RBCs); assay: Hemolysis of erythrocytes; assay type: cell-based; conditions: up to 10.0 mg mL-1, 37 °C, 12 h, absorbance 540 nm
Method: with 6×105 A549 cells subcutaneously on the right flank for the A549 model. About 2 weeks after implantation, mice with a tumor volume size of 100 mm3 were used for biodistribution and imaging, and mice with a tumor volume size of 50 mm3 for […]
1.3.11 Blood compatibility
Erythrocytes morphologies and aggregation
Erythrocytes were collected from female BALB/c mice, and erythrocytes suspension was prepared by centrifuging the citrated whole blood at 1000 g for 5 min at room temperature. After the plasma and buffy coat layers were removed, the erythrocytes were washed with PBS 3 times. […]
The dried erythrocytes samples were coated with gold and analyzed under a SEM. […]
Erythrocytes were diluted with PBS to prepare the erythrocyte suspension. […] The absorbance of the supernatant was measured with a Microplate Reader at 540 nm, and hemolysis rate was determined using the following […]
Where AS is the absorbance of the sample, A100 is the absorbance of lysed erythrocytes in H2O (a positive control), and A0 is the absorbance of 0% hemolysis in PBS (a negative control). […]
The backs of healthy BALB/c mice were depilated 3 days before treatment to ensure that all injures had recovered. […] The degree of skin response was examined and scored according to Table S5, and Paraffin sections of the skin were stained with hematoxylin and eosin (H&E) according to the manufacturer's instructions.[3] […]

[2] = tested on: 4T1 cells; assay: Cytotoxicity, CCK-8 assay, 4T1; assay type: cell-based, mouse; conditions: no light, CCK-8, n = 3
Method: The CCK-8 assay was used to examine the photodynamic therapeutic effect of SSAs on cell viability against three cell lines. 4×103 4T1 cells per well were seeded in a 96-well plate, and then incubated overnight. The cells were treated with different concentrations of Ppa and SSAs at an equivalent Ppa dose. After 24 h incubation, the medium was replaced with fresh one, and the wells were irradiated using a 660 nm laser with 1 J cm−2. After 24 h, the spent media was replaced and the cell viability was assessed using the CCK-8 reagent. The absorbance at […] of each well was recorded on a microplate reader. Untreated cells were served as a control. Results were presented as the average cell viability by following the manufacturer’s instruction. IC50 values were calculated by using nonlinear regression in software Graphpad Prism7. The cytotoxicity of SSAs and Ppa with or without laser against A549 cell line was also measured through the same procedure.
(§1) The cytotoxicity of SSAs and PDP without laser irradiation was also measured by […]

[3] = tested on: L02 cells; assay: Cytotoxicity, CCK-8 assay, L02; assay type: cell-based, human; conditions: L02 normal cells, 24 h (PDP 24 h and 48 h), CCK-8, n = 3
Method: Academy of Science Cell Bank for Type Culture Collection (Shanghai, China) and cultured in RPMI-1640 medium, supplemented with 10% fetal bovine serum (FBS), penicillin G (100 U mL-1) and streptomycin (100 μg mL-1), and incubated in 5% CO2 […]
1.3.7 In vitro ROS generation
The intracellular ROS generation was analyzed by using a peroxide-sensitive fluorescent probe, 2′, 7′- dichlorofluorescin-diacetate (DCFH-DA, Beyotime, Beijing, China). According to the manufacturer’s instruction, cells (1×10^6 cells per well) were treated SSAs and Ppa at the same concentration of 1 μg Ppa mL-1. […] 20,000 events were collected and Flowjo software was used for quantifying the intensity of fluorescence.
The CCK-8 assay was used to examine the photodynamic therapeutic effect of SSAs on cell viability against three cell lines. […] After 24 h, the spent media was replaced and the cell viability was assessed using the CCK-8 reagent. The absorbance at […] of each well was recorded on a microplate reader. […] IC50 values were calculated by using nonlinear regression in software Graphpad Prism7. The cytotoxicity of SSAs and Ppa with or without laser against A549 cell line was also measured through the same procedure.
as §1

[4] = Critical assembly concentration (pyrene fluorescence probe); assay type: physicochemical; conditions: in H2O, pyrene as fluorescence probe
Method: Ppa was dissolved in anhydrous DMSO and then diluted in different concentrations.
The absorbance values of PDPP at 667 nm were obtained and the drug loading was calculated according to the standard absorption curve. Drug loading content (DLC) = (weight of Ppa in PDPP / weight of PDPP) × 100%.
(§2) 1.3.2 Size, zeta potential and morphology
The size, polydispersity index (PDI), correlation coefficient and zeta potential of self-stabilized supramolecular assemblies (PDPP) were measured by DLS, and the morphology and particle size of PDPP were observed under a TEM. […] Furthermore, the effects of hydrophobic force, ionic interaction, and hydrogen bonding on the supramolecular self-assembly of PDPP were assessed by adding Triton X-100, NaCl, and urea to the PDPP solution with the final concentrations of 1, 5, 10, 20, 50 and 100 mM for Triton X-100, NaCl, and urea. After incubation for 1 h, the size changes of PDPP were recorded by DLS. […]
(§3) The colloidal stability of PDPP was assessed by monitoring the change in the size and PDI as a function of time. PDPP were added in H2O, PBS, H2O containing 10% of fetal bovine serum (FBS), and PBS containing 10% of FBS respectively, and these mixtures were incubated at 37℃ in a humidified chamber, and their sizes and PDI were monitored by DLS at a pre-determined time. […]
The CAC of PDPP was determined by using pyrene as a fluorescence probe. […]
Fluorescence emission spectrum […]

[5] = Size, PDI and zeta potential by DLS; assay type: physicochemical
Method: as §2
(§4) The size, polydispersity index (PDI), correlation coefficient and zeta potential of self-stabilized supramolecular assemblies (PDPP) were measured by DLS, and the morphology and particle size of PDPP were observed under a TEM. […]
(§5) 1.3.3 Colloidal stability
as §3

[6] = Colloidal stability (size and PDI over time by DLS); assay type: physicochemical; conditions: H2O, PBS, H2O or PBS with 10% FBS, 37 °C, 7 d, n = 3
Method: as §2, §4, §5, §3

[7] = Disassembly behavior in Triton X-100, NaCl or urea (DLS); assay type: physicochemical; conditions: 1 h incubation, n = 6
Method: as §2
The size, polydispersity index (PDI), correlation coefficient and zeta potential of self-stabilized supramolecular assemblies (PDPP) were measured by DLS, and the morphology and particle size of PDPP were observed under a TEM. Briefly, PDPP was dissolved in Milli-Q water and ultrasonically dispersed to prepare PDPP solutions at different concentrations (0.1, 0.5, 1.0, 5.0, and 10.0 mg mL-1) for DLS, TEM measurements. Furthermore, the effects of hydrophobic force, ionic interaction, and hydrogen bonding on the supramolecular self-assembly of PDPP were assessed by adding Triton X-100, NaCl, and urea to the PDPP solution with the final concentrations of 1, 5, 10, 20, 50 and 100 mM for Triton X-100, NaCl, and urea. After incubation for 1 h, the size changes of PDPP were recorded by DLS. […]

Substance | Hemolysis [1] | Cytotoxicity without laser irradiation [2] | Cytotoxicity without laser irradiation [3] | Critical assembly concentration (CAC) [4] | PDI ([5]; in H2O) | Size ([5]; in H2O) | Zeta Potential ([5]; in H2O) | PDI ([5]; in H2O+10%FBS) | Size ([5]; in H2O+10%FBS) | Zeta Potential ([5]; in H2O+10%FBS) | PDI ([5]; in PBS) | Size ([5]; in PBS) | Zeta Potential ([5]; in PBS) | PDI ([5]; in PBS+10%FBS) | Size ([5]; in PBS+10%FBS) | Zeta Potential ([5]; in PBS+10%FBS) | Colloidal stability: size and PDI over time [6] | Change in size and PDI after dispersion in NaCl or urea solution ([7]; 1-100 mM NaCl or urea) | Disassembly behavior in Triton solution ([7]; Triton X-100 at a high concentration (1-100 mM tested))
PEG‐dendritic peptide [PDP] | no hemolysis is observed and detected | no significant cytotoxicity | no significant cytotoxicity | – | – | – | – | – | – | – | – | – | – | – | – | – | – | – | –
PEG‐dendritic peptide‐pyropheophorbide a [PDPP] | – | – | – | 4.85 µg/mL | 0.152±0.036 | 104.68 ± 15.10 nm·days | -25.49±0.58 mV | 0.167±0.012 | 96.13 ± 9.72 nm·days | -13.57±0.85 mV | 0.137±0.036 | 100.38 ± 19.12 nm·days | -5.28±7.86 mV | 0.154±0.013 | 102.58 ± 8.94 nm·days | -7.34±0.94 mV | remain unchanged for 7 d | no significant change | disassembly behaviors of PDPP would have occurred
